These are literature values, as cited in patent US20130337579.

The series has as its target CRP (cited studies) (Escherichia coli) (UniProt P0ACJ8). Put plainly: EMSA. As to conditions: CITED Fried 1984.

Chain of CRP (cited studies) (Escherichia coli) (P0ACJ8 2-210): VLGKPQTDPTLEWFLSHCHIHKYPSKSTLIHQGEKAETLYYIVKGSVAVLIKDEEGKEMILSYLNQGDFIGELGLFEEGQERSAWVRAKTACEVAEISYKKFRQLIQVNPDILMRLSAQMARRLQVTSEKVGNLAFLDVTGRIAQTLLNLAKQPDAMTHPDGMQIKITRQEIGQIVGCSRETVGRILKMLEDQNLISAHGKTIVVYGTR

Turning to lac CRP oligo (Fried 1984), the dissociation constant (Kd) was 63 nM (200 nM cAMP) and 0.84 nM (5 uM cAMP).
